Assay results from PMC5662687 (2017).

Target: LFA-1 I domain I domain (Homo sapiens, UniProt P20701)
Assay: SPR

B1: ICAM-1 (protein)
chain: QTSVSPSKVILPRGGSVLVTCSTSCDQPKLLGIETPLPKKELLLPGNNRKVYELSNVQEDSQPMCYSNCPDGQSTAKTFLTVYWTPERVELAPLPSWQPVGKNLTLRCQVEGGAPRANLTVVLLRGEKELKREPAVGEPAEVTTTVLVRRDHHGANFSCRTELDLRPQGLELFENTSAPYQLQTFVLPATPPQLVSPRVLEVDTQGTVVCSLDGLFPVSEAQVHLALGDQRLNPTVTYGNDSFSAKASVSVTAEDEGTQRLTCAVILGNQSQETLQTVTIYSFPAPNVILTKPEVSEGTEVTVKCEAHPRAKVTLNGVPAQPLGPRAQLLLKATPEDNGRSFSCSATLEVAGQLIHKNQTRELRVLYGPRLDERDCPGNWTWPENSQQTPMCQAWGNPLPELKCLKDGTFPLPIGESVTVTRDLEGTYLCRARSTQGEVTRKVTVNVLSPRYE
B1 showed a Kd of 1.5 mM.
